From US20100297734, “Fusion Tag Comprising an Affinity Tag and an EF-Hand Motif Containing Polypeptide and Methods of Use Thereof” (University Health Network, published 2010)

Molecular target: p53(1-360) (Homo sapiens, UniProt P04637 P04637:1-360)
Experiment: EMSA; 0.10 nM DNA, 12 uM p53(1-360), PBS, 25 C, 2 ug poly(dI-dC) competitor, 1 h; 6% gel in TBM
Details: tags: HiCaM tag (His6-calmodulin) removed by thrombin; expressed in E. coli BL21(DE3)Star; chain copies: 4 inferred; label: 32P
Procedure: Functional Assays of purified, untagged constructs—The excitation and emission spectra (excited at 488 nm) of eGFP were recorded from 300 to 700 nm at 25° C. in a Fluoromax-3 Spectrofluorometer. For p53(1-360), a ³²P-labelled restriction fragment harbouring an icosamer recognition sequence (5′-[…]-3′ (SEQ ID NO:6)) (0.10 nM) was incubated alone, with 50 ng/μL BSA or 12 μM p53(1-360) in PBS at 25° C. with 2 μg poly(dI-dC)˜poly(dl-dC) for 1 hour before separation in a 6% polyacrylamide gel in TBM buffer at 25 V/cm. The gel was then exposed to a phosphor screen for 1 hour and imaged in a Typhoon® Phosphorimager (GE Healthcare). Human p53(1-360) (7 μM) was also crosslinked with 0.125% glutaraldehyde at 25° C. for 12 min. and separated on SDS-PAGE, followed by Coomassie Blue staining (Poon et al. 2007).

Sequence of p53(1-360) (P04637 1-360, one chain of several): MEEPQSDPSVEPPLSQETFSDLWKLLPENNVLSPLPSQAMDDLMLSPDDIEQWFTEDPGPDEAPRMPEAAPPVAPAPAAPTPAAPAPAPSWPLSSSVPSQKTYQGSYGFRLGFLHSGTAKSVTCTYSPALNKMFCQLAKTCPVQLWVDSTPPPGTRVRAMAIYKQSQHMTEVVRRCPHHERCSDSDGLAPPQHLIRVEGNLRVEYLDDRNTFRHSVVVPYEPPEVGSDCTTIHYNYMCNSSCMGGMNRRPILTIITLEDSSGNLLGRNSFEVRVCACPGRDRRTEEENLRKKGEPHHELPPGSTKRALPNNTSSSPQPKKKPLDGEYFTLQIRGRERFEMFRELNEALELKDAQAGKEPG

B1: p53 icosamer recognition sequence (dsDNA)
DNA 1: AGGCATGTCTAGGCATGTCT
DNA 2: AGACATGCCTAGACATGCCT
Question: Does B1 bind?
Answer: binds
